Data reported in patent US20240025992A1 (Janssen / Centocor, published 2024).

B1: DL3B575 (Fc fusion)
scFv: DIVMTQSPLSSPVTLGQPASISCRSSQSLVHSDGNTYLNWLQQRPGQPPRLLIYQISNPFSGVPDRFSGSGAGTDFTLKISRVEAEDVGVYYCMQATQFPHTFGPGTKVEIKGGSEGKSSGSGSESKSTGGSQVQLVQSGAEVKKPGSSVKVSCKASGGTLSSYVISWVRQAPGQGLEWMGGIIPIFGTANYAQKFQDRVTITADKSTNTAYMELTSLTSEDTAVYYCARDPFSDLWGRGTMVTVSS
notes: also called DL3B461 scFv-Fc; not shown: wild-type IgG1 Fc domain
B2: CD3W245-HL-E.c. (scFv)
scFv: EVQLVESGGGLVKPGGSLRLSCAASGFTFSRYNMNWVRQAPGKGLEWVSSISTSSNYIYYADSVKGRFTFSRDNAKNSLDLQMSGLRAEDTAIYYCTRGWGPFDYWGQGTLVTVSSGTEGKSSGSGSESKSTDIQMTQSPSSLSASVGDRVTITCRARQSIGTAIHWYQQKPGKAPKLLIKYASESISGVPSRFSGSGSGTDFTLTISSLQPEDFATYYCQQSGSWPYTFGQGTKLEIKGPGGQHHHHHHGAYPYDVPDYAS
notes: Tested as E. coli supernatant; also called CD3W245 scFv-HL; CD3W245 scFv HL expressed in E. coli
B3: DL3W35, extracellular domain of human DLL3 linked to a C-terminal 6xHis-Tag and a linker (ligand)
chain: AGVFELQIHSFGPGPGPGAPRSPCSARLPCRLFFRVCLKPGLSEEAAESPCALGAALSARGPVYTEQPGAPAPDLPLPDGLLQVPFRDAWPGTFSFIIETWREELGDQIGGPAWSLLARVAGRRRLAAGGPWARDIQRAGAWELRFSYRARCEPPAVGTACTRLCRPRSAPSRCGPGLRPCAPLEDECEAPLVCRAGCSPEHGFCEQPGECRCLEGWTGPLCTVPVSTSSCLSPRGPSSATTGCLVPGPGPCDGNPCANGGSCSETPRSFECTCPRGFYGLRCEVSGVTCADGPCFNGGLCVGGADPDSAYICHCPPGFQGSNCEKRVDRCSLQPCRNGGLCLDLGHALRCRCRAGFAGPRCEHDLDDCAGRACANGGTCVEGGGAHRCSCALGFGGRDCRERADPCAARPCAHGGRCYAHFSGLVCACAPGYMGARCEFPVHPDGASALPAAHPGGGSGGGSGGGSHHHHHH
notes: also called human DLL3 ECD; huDLL3
B4: DL3W34, human DLL4 ECD (Ser27-Pro524), C-10xHis (ligand)
chain: SGVFQLQLQEFINERGVLASGRPCEPGCRTFFRVCLKHFQAVVSPGPCTFGTVSTPVLGTNSFAVRDDSSGGGRNPLQLPFNFTWPGTFSLIIEAWHAPGDDLRPEALPPDALISKIAIQGSLAVGQNWLLDEQTSTLTRLRYSYRVICSDNYYGDNCSRLCKKRNDHFGHYVCQPDGNLSCLPGWTGEYCQQPICLSGCHEQNGYCSKPAECLCRPGWQGRLCNECIPHNGCRHGTCSTPWQCTCDEGWGGLFCDQDLNYCTHHSPCKNGATCSNSGQRSYTCTCRPGYTGVDCELELSECDSNPCRNGGSCKDQEDGYHCLCPPGYYGLHCEHSTLSCADSPCFNGGSCRERNQGANYACECPPNFTGSNCEKKVDRCTSNPCANGGQCLNRGPSRMCRCRPGFTGTYCELHVSDCARNPCAHGGTCHDLENGLMCTCPAGFSGRRCEVRTSIDACASSPCFNRATCYTDLSTDTFVCNCPYGFVGSRCEFPVGLPHHHHHHHHHH
notes: also called huDLL4; TPP0000494661
B5: DL3W33, Recombinant Human DLL1 ECD (Ser22-Gly540), -DI-C-6xHis (ligand)
chain: SGVFELKLQEFVNKKGLLGNRNCCRGGAGPPPCACRTFFRVCLKHYQASVSPEPPCTYGSAVTPVLGVDSFSLPDGGGADSAFSNPIRFPFGFTWPGTFSLIIEALHTDSPDDLATENPERLISRLATQRHLTVGEEWSQDLHSSGRTDLKYSYRFVCDEHYYGEGCSVFCRPRDDAFGHFTCGERGEKVCNPGWKGPYCTEPICLPGCDEQHGFCDKPGECKCRVGWQGRYCDECIRYPGCLHGTCQQPWQCNCQEGWGGLFCNQDLNYCTHHKPCKNGATCTNTGQGSYTCSCRPGYTGATCELGIDECDPSPCKNGGSCTDLENSYSCTCPPGFYGKICELSAMTCADGPCFNGGRCSDSPDGGYSCRCPVGYSGFNCEKKIDYCSSSPCSNGAKCVDLGDAYLCRCQAGFSGRHCDDNVDDCASSPCANGGTCRDGVNDFSCTCPPGYTGRNCSAPVSRCEHAPCHNGATCHERGHGYVCECARGYGGPNCQFLLPELPPGPAVVDLTEKLEGQGDIHHHHHH
notes: also called huDLL1; TPP000049465

Columns and labels:
[1] = biological target: T1, DL3W36, human DLL3 EGF6 domain+C-term ECD sequence, HSA Fusion and C-term 6 His tag (human); assay: MSD plate binding assay on coated DLL3 domain-HSA fusions
T1 construct: Fusion with the C34S variant of human serum albumin, plus 6xHis; also called EGF-6 and C-terminal fusion domain; EGF6 + Cterm
T1 sequence (chain, as listed by the source limits assumed): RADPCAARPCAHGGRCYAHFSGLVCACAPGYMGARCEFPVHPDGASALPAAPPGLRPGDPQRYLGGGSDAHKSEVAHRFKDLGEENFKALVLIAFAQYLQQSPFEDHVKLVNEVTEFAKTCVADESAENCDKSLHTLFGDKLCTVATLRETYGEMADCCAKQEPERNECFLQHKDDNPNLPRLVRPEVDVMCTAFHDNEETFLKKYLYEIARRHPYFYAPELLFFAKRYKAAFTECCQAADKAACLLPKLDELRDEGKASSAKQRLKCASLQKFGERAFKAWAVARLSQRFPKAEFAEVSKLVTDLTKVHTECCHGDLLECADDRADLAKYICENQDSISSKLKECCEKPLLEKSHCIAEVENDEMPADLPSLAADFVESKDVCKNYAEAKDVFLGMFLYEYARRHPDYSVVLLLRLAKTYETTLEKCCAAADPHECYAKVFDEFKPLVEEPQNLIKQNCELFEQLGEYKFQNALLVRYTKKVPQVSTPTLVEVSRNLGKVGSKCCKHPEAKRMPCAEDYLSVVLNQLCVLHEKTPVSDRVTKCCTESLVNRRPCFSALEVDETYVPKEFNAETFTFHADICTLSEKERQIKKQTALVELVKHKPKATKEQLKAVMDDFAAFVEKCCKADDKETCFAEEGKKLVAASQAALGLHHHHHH

[2] = biological target: B4; assay: SPR (ProteOn), antibody captured by anti-Fc; DLL4 at 100 nM and 1000 nM
[3] = biological target: B5; assay: SPR (ProteOn), antibody captured by anti-Fc; DLL1 at 100 nM and 1000 nM
[4] = biological target: B3; assay: SPR (ProteOn), antibody captured by anti-Fc, DLL3 (DL3W35) titrated
[5] = biological target: T2, CD3W147, homodimeric CD3εγ-Fc (biotinylated); assay: ELISA, biotinylated CD3W147 immobilized, scFv in E. coli supernatant
T2 construct: also called recombinant CD3; biotinylated CD3W147
T2 chain: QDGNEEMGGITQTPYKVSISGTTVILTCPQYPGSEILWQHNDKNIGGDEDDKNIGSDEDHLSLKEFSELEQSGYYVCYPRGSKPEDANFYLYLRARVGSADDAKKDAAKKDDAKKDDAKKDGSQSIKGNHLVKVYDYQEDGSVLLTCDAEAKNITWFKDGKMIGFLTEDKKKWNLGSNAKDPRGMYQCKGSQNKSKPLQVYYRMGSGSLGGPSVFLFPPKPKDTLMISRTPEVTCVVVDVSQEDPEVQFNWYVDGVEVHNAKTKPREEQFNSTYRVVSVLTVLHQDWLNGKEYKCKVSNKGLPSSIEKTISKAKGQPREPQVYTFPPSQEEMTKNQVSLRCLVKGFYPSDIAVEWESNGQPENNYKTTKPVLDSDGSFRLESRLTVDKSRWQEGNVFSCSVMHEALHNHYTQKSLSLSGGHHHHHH

DL3B574 [6] = biological target: T3, DL3B574; assay: SPR (ProteOn), antibody captured by anti-Fc, DLL3 (DL3W35) titrated
T3 construct: also called DL3B450 scFv-Fc; not shown: wild-type IgG1 Fc domain

DL3B574 [7] = biological target: T3, DL3B574; assay: SPR (ProteOn), antibody captured by anti-Fc; DLL4 at 100 nM and 1000 nM
DL3B574 [8] = biological target: T3, DL3B574; assay: SPR (ProteOn), antibody captured by anti-Fc; DLL1 at 100 nM and 1000 nM

B1: binds [1]; no binding (tested: 1000 nM) [2]; no binding (tested: 1000 nM) [3]. For the same binder, the Kd [4] was 0.31 nM.

B2: binds [5].

For B3, the Kd (DL3B574 [6]) was 2.37 nM.

B4: no binding (tested: 1000 nM) (DL3B574 [7]).

B5: no binding (tested: 1000 nM) (DL3B574 [8]).
